{"source": "patent US6387642", "binders": {"B1": {"name": "Recombinant histidine-tagged Myt1 purified from baculovirus-infected Sf9 cells (enzyme, not shown: small tags and cut ends)", "chain": "MPVPGDDMGETPLTRTPIPMPAYFSQAEQSFSLKKRGRSLCYTLPPRPPVKSALPVSRIFPNKQRSWSQPRPQSVSFRSPQNKTPASKLYDQSKGDTFFKQCFKSICKLGRGSFGEVYKVQSLEDGCFYAVKRSVSPFRGESDRQRKLQEVRKHERVGEHPNCLRFVRAWEEKRMLYLQTELCAGSLQQHSEEFAGSLPPRRVWNITCDLLHGLKHLHDRNLLHLDIKPANVFISFSGVCKLGDFGLMVELDGTEGSGEAQEGDPRYMAPELLDGIFSKAADVFSLGMSLLEVACNMELPKGGDGWQQLRQGHLPTEFTSDLPPDFLKVLSAMLEPDYRRRATVDWLLSLPAIRNAERWRMVTLAQERTLGKIIAVYQFIVWLLSFVFQWLNRPVIGFLHYCGLRALPRSPPCSPFPNHLGESSFSSDWDDESLGDDVFEVPPSPLATHRNLTYHGQELIGRHSPDLLSRPSLGSTSTPRNLSPEFSMRKRSALPLTPNVSRISQDSTGKSRSPSTSHSSSGFVDAEVQRTLFLPRNLLGMFDDATEQ"}, "B2": {"name": "M phase form of endogenous Xenopus Myt1 (from cytostatic factor-arrested egg extract) (protein)", "chain": "B1 chain"}, "B3": {"name": "Endogenous Xenopus Myt1 from interphase egg extract (protein)", "chain": "B1 chain"}}, "key": {"[1]": {"biological_target": "Cdc2-cyclin B1 complex containing the T14A mutant of Xenopus Cdc2"}, "[2]": {"biological_target": "Cdc2-cyclin B1 complex containing the T14A,Y15F double mutant of Xenopus Cdc2"}, "[3]": {"biological_target": "Cdc2-cyclin B1 complex containing the T161A mutant of Xenopus Cdc2"}, "[4]": {"biological_target": "Cdc2-cyclin B1 complex containing the Y15F mutant of Xenopus Cdc2"}, "[5]": {"biological_target": "Cdc2-cyclin B1 complex containing the triple mutant T14A,Y15F,N133A of Xenopus Cdc2"}, "[6]": {"biological_target": "Purified recombinant Cdc2-cyclin B1 complex containing wild-type Xenopus Cdc2"}, "[7]": {"biological_target": "Cdc2-cyclin B1 complex containing the T14A mutant of Xenopus Cdc2 (Xenopus)", "assay": "cell-based or functional assay"}, "[8]": {"biological_target": "Cdc2-cyclin B1 complex containing the Y15F mutant of Xenopus Cdc2 (Xenopus)", "assay": "cell-based or functional assay"}, "[9]": {"biological_target": "Cdc2-cyclin B1 complex containing the catalytically inactive N133A mutant of Xenopus Cdc2 (Xenopus)", "assay": "cell-based or functional assay"}, "[10]": {"biological_target": "Purified recombinant Cdc2-cyclin B1 complex containing wild-type Xenopus Cdc2 (Xenopus)", "assay": "cell-based or functional assay"}, "[11]": {"biological_target": "Cdc2-cyclin B1 complex containing the catalytically inactive N133A mutant of Xenopus Cdc2"}}}
{"binder": "B1", "values": [{"measurement": "phosphorylation of Cdc2 mutant, autoradiography", "setting": "[1]", "result": "Myt1 can phosphorylate both the TI4A (Thr^14 changed to Ala) and Y15F (Tyr^15 changed to Phe) mutants of Cdc2"}, {"measurement": "reduction of Cdc2-associated histone H1 kinase activity", "setting": "[1]", "result": "a large reduction in activity (60 and 50%, respectively)"}, {"measurement": "phosphorylation and H1 kinase activity", "setting": "[2]", "result": "the T14A, Y15F double mutant of Cdc2 was neither phosphorylated nor inactivated by Myt1"}, {"measurement": "phosphorylation of Cdc2 mutant, autoradiography", "setting": "[2]", "result": "the T14A,Y15F double mutant was not a substrate for Myt1"}, {"measurement": "phosphorylation of Cdc2 mutant, autoradiography", "setting": "[3]", "result": "Myt1 did not phosphorylate the T161A mutant of Cdc2 ( FIG. 2A ) on either tyrosine or threonine"}, {"measurement": "phosphorylation of Cdc2 mutant, autoradiography", "setting": "[4]", "result": "Myt1 can phosphorylate both the TI4A (Thr^14 changed to Ala) and Y15F (Tyr^15 changed to Phe) mutants of Cdc2"}, {"measurement": "reduction of Cdc2-associated histone H1 kinase activity", "setting": "[4]", "result": "a large reduction in activity (60 and 50%, respectively)"}, {"measurement": "phosphorylation of Cdc2 mutant, autoradiography", "setting": "[5]", "result": "the triple mutant T14A,Y15F, N133A was not a substrate for Myt1"}, {"measurement": "phosphorylation of Cdc2, compared with single mutants", "setting": "[6]", "result": "wild-type Cdc2 appears to be phosphorylated more efficiently than either single mutant"}, {"measurement": "phosphorylation of Cdc2 in the presence of [γ-32P]ATP, autoradiography", "setting": "[6]", "result": "Recombinant Myt1 efficiently phosphorylated cyclin-associated, wild-type Cdc2"}, {"measurement": "reduction of Cdc2-associated histone H1 kinase activity", "setting": "[6]", "result": "Treatment of wild-type Cdc2 with Myt1 caused a 90% reduction in its H1 kinase activity"}, {"measurement": "phosphorylation of Cdc2 in the presence of [γ-32P]ATP", "setting": "monomeric Cdc2", "result": "Myt1 did not phosphorylate monomeric Cdc2"}, {"measurement": "phosphoamino acid analysis: share of label in phosphotyrosine", "setting": "[7]", "result": 89, "unit": "%"}, {"measurement": "phosphoamino acid analysis: share of 32P in phosphothreonine", "setting": "[8]", "result": 96, "unit": "%"}, {"measurement": "phosphoamino acid analysis: phosphoserine", "setting": "[9]", "result": "< 0.7", "unit": "%"}, {"measurement": "phosphoamino acid analysis: phosphothreonine", "setting": "[9]", "result": 75, "unit": "%"}, {"measurement": "phosphoamino acid analysis: phosphotyrosine", "setting": "[9]", "result": 24, "unit": "%"}, {"measurement": "phosphoamino acid analysis: share of 32P in phosphothreonine", "setting": "[10]", "result": 77, "unit": "%"}, {"measurement": "phosphoamino acid analysis: share of 32P in phosphotyrosine", "setting": "[10]", "result": 20, "unit": "%"}]}
{"binder": "B2", "values": [{"measurement": "Cdc2-specific kinase activity of immunoprecipitated Myt1, relative to the interphase form", "setting": "[11]", "result": "The M phase form was about one-fifth as active as the Myt1 protein from either type of interphase extract"}]}
{"binder": "B3", "values": [{"measurement": "phosphorylation of Cdc2 by immunoprecipitated Myt1", "setting": "[6]", "result": "The immunoprecipitated Myt1 protein efficiently phosphorylated Cdc2 in both assays"}, {"measurement": "share of Cdc2 shifted to its Thr14-Tyr15 doubly phosphorylated form by the Myt1-depleted extract", "setting": "[6]", "result": "the Myt1-depleted extract phosphorylated shifted only about 20% of the substrate"}, {"measurement": "share of Cdc2 shifted to its Thr14-Tyr15 doubly phosphorylated form by the control extract", "setting": "[6]", "result": "the control extract shifted ˜80% of the Cdc2 to its Thr^14-Tyr^15 doubly phosphorylated form"}, {"measurement": "tyrosine phosphorylation of Cdc2 in Myt1-depleted extract, anti-phosphotyrosine immunoblot", "setting": "[6]", "result": "The tyrosine phosphorylation of Cdc2 was dramatically reduced in the Myt1-depleted extract"}]}
